Source: article PMC9352680, “A comprehensive thermodynamic model for RNA binding by the Saccharomyces cerevisiae Pumilio protein PUF4”

T1: PUF4 RNA-binding domain (Saccharomyces cerevisiae, UniProt P25339 537-888)
T1 sequence: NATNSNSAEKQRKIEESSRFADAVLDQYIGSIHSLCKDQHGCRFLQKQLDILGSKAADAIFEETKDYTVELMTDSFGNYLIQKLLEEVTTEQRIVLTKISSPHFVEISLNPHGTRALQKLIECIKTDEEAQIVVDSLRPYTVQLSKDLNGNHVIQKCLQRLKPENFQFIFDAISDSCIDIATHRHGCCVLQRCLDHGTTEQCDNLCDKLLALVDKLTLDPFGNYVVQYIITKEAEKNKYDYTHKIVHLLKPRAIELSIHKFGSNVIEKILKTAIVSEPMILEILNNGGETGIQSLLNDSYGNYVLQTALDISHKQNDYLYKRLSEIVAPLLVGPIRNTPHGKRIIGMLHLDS


The binders below were run against T1, PUF4 RNA-binding domain (assay: Mg; RNA-MaP; 20 mM Na-HEPES pH 7.4, 30 mM KOAc, 0.75 mM MgCl2, 0.1% Tween-20, 5% glycerol, 0.1 mg/mL BSA, 2 mM DTT; 25 C; 0.0125-409.6 nM protein). Settings: tags: N-His6-TEV cleaved; C-SNAP kept, Cy3B-labelled; label: tethered on chip by stalled RNA polymerase.

| Binder | Kd |
| --- | --- |
| UCUCUUUGUAACCCUUCUCUU (ssRNA) [Ic_S1_P4E.1_K4.1_C4.1_H4.1_A4.1_[T5A]_[A6C]_[T7C]_F4.1_[T8C]_[A9T]_T4.1] | 727 nM |
| UCUCUUUUUAUAUCUCUCUU (ssRNA) [Ib_S1_P3E.1_K3.1_C3.1_H3.1_[G2T]_A3.1_F3.1_[A8C]_T3.1] | > 2300 nM |
| UCUCUUUGUAACGUGUCUCUU (ssRNA) [Ic_S1_P4E.1_K4.1_C4.1_H4.1_A4.1_[T5A]_[A6C]_[T7G]_F4.1_[A9G]_T4.1] | 758 nM |
| UCUCUUUGUAACCUCUCUCUU (ssRNA) [Ic_S1_P4E.1_K4.1_C4.1_H4.1_A4.1_[T5A]_[A6C]_[T7C]_F4.1_[A9C]_T4.1] | 90 nM |
| UCUCUUUGUAAGCUAUCUCUU (ssRNA) [Ic_S1_P4E.1_K4.1_C4.1_H4.1_A4.1_[T5A]_[A6G]_[T7C]_F4.1_T4.1] | 26.5 nM |
| UCUCUUUGUACACUGUCUCUU (ssRNA) [Ic_S1_P4E.1_K4.1_C4.1_H4.1_A4.1_[T5C]_[T7C]_F4.1_[A9G]_T4.1] | 5.05 nM |
| UCUCUUUGUACAACUUCUCUU (ssRNA) [Ic_S1_P4E.1_K4.1_C4.1_H4.1_A4.1_[T5C]_[T7A]_F4.1_[T8C]_[A9T]_T4.1] | 33.9 nM |
| UCUCUUUGUACAACCUCUCUU (ssRNA) [Ic_S1_P4E.1_K4.1_C4.1_H4.1_A4.1_[T5C]_[T7A]_F4.1_[T8C]_[A9C]_T4.1] | 81 nM |
| UCUCUUUGUACAUAGUCUCUU (ssRNA) [Ic_S1_P4E.1_K4.1_C4.1_H4.1_A4.1_[T5C]_F4.1_[T8A]_[A9G]_T4.1] | 5.5 nM |
| UCUCUUUGUAACUGGUCUCUU (ssRNA) [Ic_S1_P4E.1_K4.1_C4.1_H4.1_A4.1_[T5A]_[A6C]_F4.1_[T8G]_[A9G]_T4.1] | 937 nM |
| UCUCUUUGUACAAACUCUCUU (ssRNA) [Ic_S1_P4E.1_K4.1_C4.1_H4.1_A4.1_[T5C]_[T7A]_F4.1_[T8A]_[A9C]_T4.1] | 142 nM |
| UCUCUUUGUAAGCCCUCUCUU (ssRNA) [Ic_S1_P4E.1_K4.1_C4.1_H4.1_A4.1_[T5A]_[A6G]_[T7C]_F4.1_[T8C]_[A9C]_T4.1] | 2290 nM |
| UCUCUUUGUACAUCUUCUCUU (ssRNA) [Ic_S1_P4E.1_K4.1_C4.1_H4.1_A4.1_[T5C]_F4.1_[T8C]_[A9T]_T4.1] | 21.1 nM |
| UCUCUUUGUAACGCUUCUCUU (ssRNA) [Ic_S1_P4E.1_K4.1_C4.1_H4.1_A4.1_[T5A]_[A6C]_[T7G]_F4.1_[T8C]_[A9T]_T4.1] | 581 nM |
| UCUCUUUGUAACGUCUCUCUU (ssRNA) [Ic_S1_P4E.1_K4.1_C4.1_H4.1_A4.1_[T5A]_[A6C]_[T7G]_F4.1_[A9C]_T4.1] | 789 nM |
| UCUCUUUGUACAUGGUCUCUU (ssRNA) [Ic_S1_P4E.1_K4.1_C4.1_H4.1_A4.1_[T5C]_F4.1_[T8G]_[A9G]_T4.1] | 59.6 nM |

| Binder | Kd |
| --- | --- |
| UCUCUUUGUAACACAUCUCUU (ssRNA) [Ic_S1_P4E.1_K4.1_C4.1_H4.1_A4.1_[T5A]_[A6C]_[T7A]_F4.1_[T8C]_T4.1] | 209 nM |
| UCUCUUUGUAACCAGUCUCUU (ssRNA) [Ic_S1_P4E.1_K4.1_C4.1_H4.1_A4.1_[T5A]_[A6C]_[T7C]_F4.1_[T8A]_[A9G]_T4.1] | > 2300 nM |
| UCUCUUUGUACAAAAUCUCUU (ssRNA) [Ic_S1_P4E.1_K4.1_C4.1_H4.1_A4.1_[T5C]_[T7A]_F4.1_[T8A]_T4.1] | 34.1 nM |
| UCUCUUUGUAAGCCAUCUCUU (ssRNA) [Ic_S1_P4E.1_K4.1_C4.1_H4.1_A4.1_[T5A]_[A6G]_[T7C]_F4.1_[T8C]_T4.1] | 515 nM |
| UCUCUUUGUACACUCUCUCUU (ssRNA) [Ic_S1_P4E.1_K4.1_C4.1_H4.1_A4.1_[T5C]_[T7C]_F4.1_[A9C]_T4.1] | 8.95 nM |
| UCUCUUUGUAACAGCUCUCUU (ssRNA) [Ic_S1_P4E.1_K4.1_C4.1_H4.1_A4.1_[T5A]_[A6C]_[T7A]_F4.1_[T8G]_[A9C]_T4.1] | 1150 nM |
| UCUCUUUGUACACAAUCUCUU (ssRNA) [Ic_S1_P4E.1_K4.1_C4.1_H4.1_A4.1_[T5C]_[T7C]_F4.1_[T8A]_T4.1] | 17.1 nM |
| UCUCUUUGUAACGAUUCUCUU (ssRNA) [Ic_S1_P4E.1_K4.1_C4.1_H4.1_A4.1_[T5A]_[A6C]_[T7G]_F4.1_[T8A]_[A9T]_T4.1] | 884 nM |
| UCUCUUUGCAUAUCUCUCUU (ssRNA) [Ib_S1_P3E.1_K3.1_C3.1_H3.1_[T3C]_A3.1_F3.1_[A8C]_T3.1] | > 2300 nM |
| UCUCUUUGUAACCAAUCUCUU (ssRNA) [Ic_S1_P4E.1_K4.1_C4.1_H4.1_A4.1_[T5A]_[A6C]_[T7C]_F4.1_[T8A]_T4.1] | 863 nM |
| UCUCUUUGUAACGCGUCUCUU (ssRNA) [Ic_S1_P4E.1_K4.1_C4.1_H4.1_A4.1_[T5A]_[A6C]_[T7G]_F4.1_[T8C]_[A9G]_T4.1] | > 2300 nM |
| UCUCUUUGUAACAACUCUCUU (ssRNA) [Ic_S1_P4E.1_K4.1_C4.1_H4.1_A4.1_[T5A]_[A6C]_[T7A]_F4.1_[T8A]_[A9C]_T4.1] | 580 nM |
| UCUCUUUGUAAGCUGUCUCUU (ssRNA) [Ic_S1_P4E.1_K4.1_C4.1_H4.1_A4.1_[T5A]_[A6G]_[T7C]_F4.1_[A9G]_T4.1] | 544 nM |
| UCUCUUUGUACACGAUCUCUU (ssRNA) [Ic_S1_P4E.1_K4.1_C4.1_H4.1_A4.1_[T5C]_[T7C]_F4.1_[T8G]_T4.1] | 60.9 nM |
| UCUCUUUGUAACAAGUCUCUU (ssRNA) [Ic_S1_P4E.1_K4.1_C4.1_H4.1_A4.1_[T5A]_[A6C]_[T7A]_F4.1_[T8A]_[A9G]_T4.1] | 1670 nM |
| UCUCUUUGUAACAGUUCUCUU (ssRNA) [Ic_S1_P4E.1_K4.1_C4.1_H4.1_A4.1_[T5A]_[A6C]_[T7A]_F4.1_[T8G]_[A9T]_T4.1] | 362 nM |
